Target: origin recognition complex (ORC) (S. cerevisiae) (UniProt P54784)
Assay: cross-linking

Substance: MCM2–7 (mini-chromosome maintenance proteins 2–7) with a single HA tag at the N-terminus of Mcm3, P29469;P24279;P30665;P29496;P53091;P38132
- stoichiometry N (MCM2–7 hexamer per ORC): 1
